# T1: Topo IIC (Giardia lamblia, UniProt E2RU90 489-1491)
# T1 sequence: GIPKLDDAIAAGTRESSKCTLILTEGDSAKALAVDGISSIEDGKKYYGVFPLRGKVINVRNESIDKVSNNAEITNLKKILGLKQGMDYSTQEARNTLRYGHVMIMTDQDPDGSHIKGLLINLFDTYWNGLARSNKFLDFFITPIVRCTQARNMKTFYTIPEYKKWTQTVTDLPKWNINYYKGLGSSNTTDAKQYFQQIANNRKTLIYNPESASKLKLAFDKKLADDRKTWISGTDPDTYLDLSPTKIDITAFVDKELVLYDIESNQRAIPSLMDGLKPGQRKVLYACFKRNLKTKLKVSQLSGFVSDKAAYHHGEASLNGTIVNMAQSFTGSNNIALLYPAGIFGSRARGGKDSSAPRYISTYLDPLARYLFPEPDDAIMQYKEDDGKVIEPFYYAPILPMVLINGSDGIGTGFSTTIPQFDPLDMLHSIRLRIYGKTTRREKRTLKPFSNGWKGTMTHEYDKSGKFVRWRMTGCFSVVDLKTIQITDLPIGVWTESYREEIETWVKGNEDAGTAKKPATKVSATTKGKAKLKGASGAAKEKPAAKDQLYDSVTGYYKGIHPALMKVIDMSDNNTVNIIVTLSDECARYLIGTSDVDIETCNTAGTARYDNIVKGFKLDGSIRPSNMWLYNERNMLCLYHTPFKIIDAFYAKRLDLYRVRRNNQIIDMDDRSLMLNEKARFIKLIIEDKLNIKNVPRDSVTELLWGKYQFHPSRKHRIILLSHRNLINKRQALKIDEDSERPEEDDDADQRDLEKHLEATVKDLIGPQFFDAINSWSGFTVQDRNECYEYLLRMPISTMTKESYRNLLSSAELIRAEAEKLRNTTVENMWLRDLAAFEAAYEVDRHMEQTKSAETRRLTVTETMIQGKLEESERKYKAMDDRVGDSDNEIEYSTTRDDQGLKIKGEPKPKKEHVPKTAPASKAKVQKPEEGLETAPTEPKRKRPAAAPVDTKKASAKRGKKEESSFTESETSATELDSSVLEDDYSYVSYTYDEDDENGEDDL
# T2: Topo IICm1 (Giardia lamblia, UniProt E2RU90 489-1491, Y847H)
# T2 sequence: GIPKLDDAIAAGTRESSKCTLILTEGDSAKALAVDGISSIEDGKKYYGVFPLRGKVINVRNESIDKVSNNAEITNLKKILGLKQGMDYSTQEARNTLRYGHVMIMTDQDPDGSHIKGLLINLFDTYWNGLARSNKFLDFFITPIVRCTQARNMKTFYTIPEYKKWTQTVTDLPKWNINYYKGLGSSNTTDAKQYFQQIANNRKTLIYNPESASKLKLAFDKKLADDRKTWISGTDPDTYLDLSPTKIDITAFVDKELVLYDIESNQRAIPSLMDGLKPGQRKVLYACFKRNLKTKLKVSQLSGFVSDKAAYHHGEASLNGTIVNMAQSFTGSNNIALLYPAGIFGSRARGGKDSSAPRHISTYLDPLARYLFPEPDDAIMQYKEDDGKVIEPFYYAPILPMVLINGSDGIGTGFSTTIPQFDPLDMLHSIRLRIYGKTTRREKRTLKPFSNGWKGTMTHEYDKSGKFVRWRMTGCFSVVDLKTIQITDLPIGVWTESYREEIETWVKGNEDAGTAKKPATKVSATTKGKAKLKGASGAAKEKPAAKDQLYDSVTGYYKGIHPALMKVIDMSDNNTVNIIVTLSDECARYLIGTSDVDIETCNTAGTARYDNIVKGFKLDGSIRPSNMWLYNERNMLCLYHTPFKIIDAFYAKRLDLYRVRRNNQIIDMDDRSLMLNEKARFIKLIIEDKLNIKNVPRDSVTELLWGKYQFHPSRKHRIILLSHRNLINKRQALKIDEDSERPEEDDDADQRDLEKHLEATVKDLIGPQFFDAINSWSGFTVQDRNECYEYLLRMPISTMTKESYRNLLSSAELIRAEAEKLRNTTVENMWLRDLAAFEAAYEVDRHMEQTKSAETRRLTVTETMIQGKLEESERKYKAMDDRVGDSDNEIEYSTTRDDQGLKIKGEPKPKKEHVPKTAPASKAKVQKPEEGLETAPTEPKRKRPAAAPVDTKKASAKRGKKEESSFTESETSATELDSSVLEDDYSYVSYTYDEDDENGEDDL
# What was measured:
# Topo IIC = biological target: T1, Topo IIC; test: EMSA; EMSA: 0.02 pmol 5'-labeled probe, 5 ng protein, 20 ul, 0.5 ug poly(dI-dC), 15 min, room temperature, 6% acrylamide gel; buffer, salt and pH only by citation; conditions: protein: recombinant; tags: C-terminal V5-His; chain copies: 2; label: 5'-32P
# Topo IICm1 = biological target: T2, Topo IICm1; test: as above; conditions: protein: recombinant; tags: C-terminal V5-His; chain copies: 2; label: 5'-32P
binder,measurement,setting,value
IIBS (dsDNA) DNA 1: ATGAAATCTAACAATGCGCTCATCGTCATCCTCGGC DNA 2: GCCGAGGATGACGATGAGCGCATTGTTAGATTTCAT,binding result,Topo IIC,binds
same,binding result,Topo IICm1,binds
